Source: the supplement of paper PMC10724198
± gives the standard deviation of the averaged measurements.

Experiments:
Saccharomyces cerevisiae [1] = test: protein stability index of tFT-peptide fusion (C-terminal peptide) (PSI (0-1 scale)); higher = more stable (slower turnover)
Procedure: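 MPS profiling in S. cerevisiae of the tFT-X12 degron library: putative degron peptides plus stable controls, 12 aa, fused to the C-terminus of a sfGFP-mCherry timer. Cells are FACS-sorted into 8 mCherry/sfGFP bins and deep-sequenced. PSI runs from 0 (unstable) to 1 (stable). Backgrounds are wild type, das1Δ and doa10Δ at 30 °C, and wild type, das1Δ, cdc34-1 and cdc53-1 at 37 °C; 2-3 technical replicates each.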

Saccharomyces cerevisiae [2] = test: as above; conditions: genetic background: wild type; temperature: 30 C
[3] = genetic background: cdc34-1, temperature: 37 C
[4] = genetic background: cdc53-1, temperature: 37 C
[5] = genetic background: das1 deletion, temperature: 30 C
[6] = genetic background: das1 deletion, temperature: 37 C
[7] = genetic background: doa10 deletion, temperature: 30 C
[8] = genetic background: wild type, temperature: 30 C
[9] = genetic background: wild type, temperature: 37 C
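Note: PSI is a weighted mean of sequencing reads over stability bins, variants kept only with over 10 reads, mCherry proximal and sfGFP distal, peptide attached via GGGS linker.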

Row | Sequence | protein stability index (Saccharomyces cerevisiae [2]) | other results
1 | VSGITLPFLMFH |  | protein stability index (Saccharomyces cerevisiae [1]; [3]): 0.287 ± 0.055; protein stability index (Saccharomyces cerevisiae [1]; [4]): 0.242 ± 0.034; protein stability index (Saccharomyces cerevisiae [1]; [5]): 0.348 ± 0.022; protein stability index (Saccharomyces cerevisiae [1]; [6]): 0.458 ± 0.012; protein stability index (Saccharomyces cerevisiae [1]; [7]): 0.635 ± 0.0033; protein stability index (Saccharomyces cerevisiae [1]; [8]): 0.329 ± 0.063; protein stability index (Saccharomyces cerevisiae [1]; [9]): 0.426 ± 0.0043
2 | VSGSFRVCFRVW |  | protein stability index (Saccharomyces cerevisiae [1]; [3]): 0.612 ± 0.048; protein stability index (Saccharomyces cerevisiae [1]; [4]): 0.629 ± 0.0076; protein stability index (Saccharomyces cerevisiae [1]; [5]): 0.521 ± 0.032; protein stability index (Saccharomyces cerevisiae [1]; [6]): 0.608 ± 0.015; protein stability index (Saccharomyces cerevisiae [1]; [7]): 0.538 ± 0.024; protein stability index (Saccharomyces cerevisiae [1]; [8]): 0.517 ± 0.012; protein stability index (Saccharomyces cerevisiae [1]; [9]): 0.5981 ± 0.004
3 | VWWWGGVGWLMV |  | protein stability index (Saccharomyces cerevisiae [1]; [3]): 0.571 ± 0.047; protein stability index (Saccharomyces cerevisiae [1]; [4]): 0.601 ± 0.026; protein stability index (Saccharomyces cerevisiae [1]; [5]): 0.52 ± 0.01; protein stability index (Saccharomyces cerevisiae [1]; [6]): 0.625 ± 0.025; protein stability index (Saccharomyces cerevisiae [1]; [7]): 0.386 ± 0.015; protein stability index (Saccharomyces cerevisiae [1]; [8]): 0.412 ± 0.019; protein stability index (Saccharomyces cerevisiae [1]; [9]): 0.544 ± 0.012
4 | WVKPVRAWTILR | 0.605 ± 0.025 | 
5 | WVPGPLEPSLVL | 0.774 ± 0.0096 | 
6 | WVPLGPFCLPLF | 0.724 ± 0.1 | 
7 | WVPPPPYSPFSL | 0.695 ± 0.027 | 
8 | WVRIGVEFGWGE | 0.689 ± 0.11 | 
9 | WVRQYFRGLQLR | 0.595 ± 0.074 | 
10 | WVSWGCCSFLLT | 0.616 ± 0.0092 | 
11 | WVVSLTNSLAHV | 0.581 ± 0.013 | 
12 | WVVSRGPFAVGP | 0.68 ± 0.021 | 
13 | WWEVSFRVGAVR | 0.648 ± 0.025 | 
14 | WWGRWPGLAGGR | 0.716 ± 0.068 | 
15 | WWKLSGTGWGTL | 0.73 ± 0.022 | 
16 | WWLRLVLCGWEW | 0.721 ± 0.074 | 
17 | WWSFVGACDGVG | 0.549 ± 0.012 | 
18 | WWWGGVRGGMGG | 0.749 ± 0.026 | 
19 | YADAGRVSLWIA | 0.5512 ± 0.0054 | 
20 | YAERNKKTLKDT | 0.638 ± 0.011 | 
21 | YALWRFRSLADV | 0.695 ± 0.1 | 
22 | YCGGRCGGWEIG | 0.698 ± 0.012 | 

Row | Sequence | protein stability index (Saccharomyces cerevisiae [2]) | other results
23 | YCSITGIRLLVG | 0.579 ± 0.023 | 
24 | YDAGWVDVLLVI | 0.6419 ± 0.0064 | 
25 | YDGGLAALQVLL | 0.68 ± 0.051 | 
26 | YDIAVDAEIDPY | 0.685 ± 0.0081 | 
27 | YEKWIKKCNKEE | 0.689 ± 0.068 | 
28 | YEQLSGHPPVVR | 0.7236 ± 0.0014 | 
29 | YFGGMGPRGRER | 0.683 ± 0.016 | 
30 | YFSQPLGPSPLL | 0.812 ± 0.074 | 
31 | YFWTHLISIPDV | 0.676 ± 0.062 | 
32 | YGCSRALGCMGG | 0.596 ± 0.14 | 
33 | YGFLFRFLSPNP | 0.6788 ± 0.0038 | 
34 | YGGLFFLVSLPP | 0.566 ± 0.0082 | 
35 | YGIILPIRVSGF | 0.631 ± 0.035 | 
36 | YGSGSDGRGGPG | 0.662 ± 0.0077 | 
37 | YGVCFKAFQFKL | 0.676 ± 0.056 | 
38 | YHALNSLHPPSP | 0.69 ± 0.027 | 
39 | YHNFLPRPPRKR | 0.662 ± 0.077 | 
40 | YIIEGKRKYNRI | 0.682 ± 0.029 | 
41 | YILLGEFAGVFP | 0.689 ± 0.17 | 
42 | YINIKKKKINKT | 0.688 ± 0.039 | 
43 | YINVEPRITKNT | 0.709 ± 0.0085 | 
44 | YIPPGNTTVPSC | 0.694 ± 0.038 | 

Row | Sequence | protein stability index (Saccharomyces cerevisiae [2]) | other results
45 | YKPKGSKKFKNK | 0.624 ± 0.029 | 
46 | YKSELSIPYAPV | 0.687 ± 0.015 | 
47 | YLLDTLTAAREI | 0.673 ± 0.016 | 
48 | YLLLVPDTRTLL | 0.683 ± 0.0079 | 
49 | YLLYSDSLCFVT | 0.659 ± 0.03 | 
50 | YLPDPVVSLAHS | 0.656 ± 0.063 | 
51 | YLYLKSRDTFLN | 0.7094 ± 0.0013 | 
52 | YMGDFRPAFAVT | 0.64 ± 0.046 | 
53 | YMLSMIYEIEMM | 0.578 ± 0.04 | 
54 | YNRALPGGQAML | 0.795 ± 0.039 | 
55 | YPHPPRPSNQLF | 0.615 ± 0.0079 | 
56 | YPIRPRYSPAGN | 0.721 ± 0.043 | 
57 | YPPCSPGPLAPS | 0.672 ± 0.026 | 
58 | YPPPPLPPPRPP | 0.555 ± 0.015 | 
59 | YPPYPSHSSLHT | 0.6987 ± 0.0062 | 
60 | YPSDLRPPSSPI | 0.7512 ± 0.0041 | 
61 | YPSTESPAGLAL | 0.726 ± 0.025 | 
62 | YPTQSPSPAPPT | 0.644 ± 0.099 | 
63 | YQDDGRRPGFVI | 0.675 ± 0.013 | 
64 | YQDGLCYYFCTT | 0.559 ± 0.02 | 
65 | YQSHFERSGVAR | 0.674 ± 0.077 | 
66 | YRFFGGYWETGW | 0.744 ± 0.033 | 

Row | Sequence | protein stability index (Saccharomyces cerevisiae [2]) | other results
67 | YRLCEARVQSDN | 0.685 ± 0.022 | 
68 | YRSLFPAPPLHP | 0.6747 ± 0.0026 | 
69 | YRSTPTGPPRPT | 0.758 ± 0.13 | 
70 | YSASPLSCICPP | 0.652 ± 0.053 | 
71 | YSFVKEFLNHRY | 0.681 ± 0.036 | 
72 | YSGLNRVPDFCH | 0.676 ± 0.039 | 
73 | YSGRGLISNHGY | 0.723 ± 0.043 | 
74 | YSLQSCGFLANE | 0.642 ± 0.03 | 
75 | YTPPNTLCPPVA | 0.703 ± 0.24 | 
76 | YTSHRGKVYMSV | 0.632 ± 0.019 | 
77 | YTTVRGETRSQL | 0.727 ± 0.017 | 
78 | YVARRRPHPTGP | 0.778 ± 0.17 | 
79 | YVFFPNGGLRLG | 0.564 ± 0.022 | 
80 | YVGGGAGVLLVL | 0.623 ± 0.014 | 
81 | YVGLSSRSFLSF | 0.687 ± 0.033 | 
82 | YVLLDFFFFFLV |  | protein stability index (Saccharomyces cerevisiae [1]; [3]): 0.216 ± 0.044; protein stability index (Saccharomyces cerevisiae [1]; [4]): 0.329 ± 0.029; protein stability index (Saccharomyces cerevisiae [1]; [5]): 0.24 ± 0.017; protein stability index (Saccharomyces cerevisiae [1]; [6]): 0.356 ± 0.043; protein stability index (Saccharomyces cerevisiae [1]; [7]): 0.211 ± 0.0032; protein stability index (Saccharomyces cerevisiae [1]; [8]): 0.182 ± 0.06; protein stability index (Saccharomyces cerevisiae [1]; [9]): 0.255 ± 0.032
83 | YVSSYILPVTRV | 0.603 ± 0.045 | 
84 | YVTPALRPTSSR | 0.728 ± 0.031 | 
85 | YWAPYVWMFGFR | 0.565 ± 0.0088 | 
86 | YYPRGIYHNSMT | 0.713 ± 0.033 | 
